Laboratory results from patent US20080181886A1 (published 2008).
Ends that are not written are not given here.

B1: TACI_d1 (first CRD of TACI, residues 32-67) (receptor)
chain: RSCPEEQYWDPLLGTCMSCKTICNHQSQRTCAAFCR
modifications: disulfide (positions not given here); also: more than one disulfide-bonded isomer, pairings not given here
B2: TACI_d1d2 (residues 21-116 of the TACI extracellular domain, C-terminal His-tag) (receptor)
chain: FPQGLWTGVAMRSCPEEQYWDPLLGTCMSCKTICNHQSQRTCAAFCRSLSCRKEQGKFYDHLLRDCISCASICGQHPKQCAYFCENKLRSPVNLPP

Key:
[1] = target: T1, human BAFF (UniProt Q9Y275 82-285); assay: competitive SPR
T1 sequence (Q9Y275 82-285): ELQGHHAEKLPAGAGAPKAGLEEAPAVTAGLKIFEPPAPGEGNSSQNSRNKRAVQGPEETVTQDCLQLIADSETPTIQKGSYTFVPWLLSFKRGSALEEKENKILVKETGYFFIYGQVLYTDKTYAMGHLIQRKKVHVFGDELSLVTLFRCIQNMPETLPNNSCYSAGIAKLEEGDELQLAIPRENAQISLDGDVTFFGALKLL

[2] = target: T2, TRX-APRIL (mouse, UniProt Q9D777 104-241); assay: competitive SPR
T2 chain: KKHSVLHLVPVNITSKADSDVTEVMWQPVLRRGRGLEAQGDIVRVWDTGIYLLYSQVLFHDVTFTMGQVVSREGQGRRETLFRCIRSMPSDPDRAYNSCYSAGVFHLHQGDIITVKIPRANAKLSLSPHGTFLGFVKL

[3] = target: T1, human BAFF; assay: competitive SPR; remark: listed apart in the source
[4] = target: T2, TRX-APRIL; assay: competitive SPR (BCMA-Fc)
[5] = target: T1, human BAFF; assay: competitive SPR; interaction observed, curve not fitted adequately

| Binder | IC50 [1] [nM] | IC50 [2] [nM] | IC50 [3] [nM] | IC50 [4] [nM] | IC50 [5] [nM] |
| --- | --- | --- | --- | --- | --- |
| GSPWSLSCRKEQGKFYDHLLRDCISCASICGQHPKQCAYFCENKLR (receptor) [TACI_d2 (second cysteine-rich domain, CRD2, residues 68-109 of human TACI)] | 4 | 3.2 | 1.8 |  |  |
| B1 |  |  |  | 2000 | > 100 |
| B2 |  |  | 1.3 | 11 |  |
